Assays:
[1] = test system: NC(=O)c1ccc[n+]([C@@H]2O[C@H](COP(=O)([O-])OP(=O)(O)OC[C@H]3O[C@@H](n4cnc5c(N)ncnc54)[C@H](O)[C@@H]3O)[C@@H](O)[C@H]2O)c1; test: purified protein; settings: IMP NAD+ site; substrate inhibition attributed to an E-XMP*•NAD+ complex; varied: cofactor
[2] = biological target: T1, CgImd1 (IMP dehydrogenase, CgIMPDH, VGIV) (Cryptococcus bacillisporus, UniProt E3P6S3); test: NADH production at […] nm, tight-binding inhibition fits; assay type: biochemical
T1 construct: gene IMD1; recombinant CgImd1 expressed in E. coli
T1 sequence (E3P6S3 entry or part of it): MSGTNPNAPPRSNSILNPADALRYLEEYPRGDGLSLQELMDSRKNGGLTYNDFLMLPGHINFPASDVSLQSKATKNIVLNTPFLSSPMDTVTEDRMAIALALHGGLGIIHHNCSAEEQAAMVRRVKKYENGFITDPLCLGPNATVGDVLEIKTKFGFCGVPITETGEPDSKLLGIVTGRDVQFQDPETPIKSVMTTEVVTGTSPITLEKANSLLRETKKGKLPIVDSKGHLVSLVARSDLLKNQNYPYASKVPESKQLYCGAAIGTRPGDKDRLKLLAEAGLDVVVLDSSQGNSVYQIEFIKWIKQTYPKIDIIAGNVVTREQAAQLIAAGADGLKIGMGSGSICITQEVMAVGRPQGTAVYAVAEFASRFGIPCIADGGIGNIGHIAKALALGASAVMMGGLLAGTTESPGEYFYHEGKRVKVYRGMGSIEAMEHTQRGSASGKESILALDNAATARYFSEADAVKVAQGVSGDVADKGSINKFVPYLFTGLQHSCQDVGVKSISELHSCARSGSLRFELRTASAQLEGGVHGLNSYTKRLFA

[3] = biological target: T2, CnImd1 (IMP dehydrogenase, CnIMPDH, VNI) (Cryptococcus neoformans, UniProt J9VET5); test: crystal structure with IMP and MPA; steady-state kinetics (tight-binding uncompetitive vs NAD+); assay type: biochemical
T2 construct: gene CNAG_00441; recombinant, 544 residues; 395 residues modelled per monomer
T2 sequence (J9VET5 entry or part of it): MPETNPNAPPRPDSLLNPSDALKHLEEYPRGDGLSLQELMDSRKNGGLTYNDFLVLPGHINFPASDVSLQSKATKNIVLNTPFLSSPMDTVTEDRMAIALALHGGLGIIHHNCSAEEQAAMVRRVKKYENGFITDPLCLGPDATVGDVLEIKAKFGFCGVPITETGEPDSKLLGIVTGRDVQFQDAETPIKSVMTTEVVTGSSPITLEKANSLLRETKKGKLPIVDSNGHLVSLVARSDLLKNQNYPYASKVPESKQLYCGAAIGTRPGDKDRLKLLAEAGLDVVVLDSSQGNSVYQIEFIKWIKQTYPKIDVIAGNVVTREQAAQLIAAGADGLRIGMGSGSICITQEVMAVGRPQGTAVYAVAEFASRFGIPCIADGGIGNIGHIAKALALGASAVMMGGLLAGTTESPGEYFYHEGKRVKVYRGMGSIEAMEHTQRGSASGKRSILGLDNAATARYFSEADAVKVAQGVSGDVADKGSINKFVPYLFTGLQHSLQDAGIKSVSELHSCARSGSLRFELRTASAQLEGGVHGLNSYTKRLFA

Compound | Km [1] [µM] | Ki [2] [µM] | Ki [3] [µM]
CgImd1 (IMP dehydrogenase, CgIMPDH, VGIV) (Cryptococcus bacillisporus) | 532 ± 65 | – | –
COc1c(C)c2c(c(O)c1C/C=C(\C)CCC(=O)O)C(=O)OC2 [MPA, mycophenolic acid] | – | 0.096 ± 0.005 | 0.24 ± 0.018
CnImd1 (IMP dehydrogenase, CnIMPDH, VNI) (Cryptococcus neoformans H99) | 634 ± 97 | – | –

Source: paper PMC3469657, “De novo GTP Biosynthesis Is Critical for Virulence of the Fungal Pathogen Cryptococcus neoformans” (PLoS Pathogens, 2012)
